Patent US20210260159A1

Biological target: human CD40 on cells (HEK293 transfected with human CD40; Ramos-Blue B-lymphocytes; human B cells; human monocyte-derived dendritic cells) (human) (UniProt P25942)
Experiment: cell-based or functional assay

Chain of UniProt P25942 (P25942 21-277 limits assumed): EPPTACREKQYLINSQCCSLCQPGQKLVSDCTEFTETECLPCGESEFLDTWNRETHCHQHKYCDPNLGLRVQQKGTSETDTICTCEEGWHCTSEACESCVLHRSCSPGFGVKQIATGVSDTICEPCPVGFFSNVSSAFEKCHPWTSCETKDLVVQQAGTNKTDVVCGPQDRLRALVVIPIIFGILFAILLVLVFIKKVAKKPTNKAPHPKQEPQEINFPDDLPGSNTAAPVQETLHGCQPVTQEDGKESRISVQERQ

- EC50 (nM), NFkB-luciferase reporter, HuCD40 293 HEK NFkB c3 cells: 2.27 nM
- EC50 (nM), NFkB/AP-1 reporter, Ramos-Blue B-cells: 208 nM
Substance: human IgG4P isotype control NIP-228 (antibody)
